Measurements reported in US20260116946A1, “NOVEL CD200 FUSION PROTEINS” (DUCENTIS BIOTHERAPEUTICS LIMITED, priority 2022, published 2026).
“Also recorded” adds a separate entry of the source.

Key:
U937-CD200R cells = experiment: Cell binding to U937-CD200R cells by flow cytometry; conditions: 1, 4 and 24 hours at 37° C., anti-human IgG secondary, compared to DS-155
Experimental: U937 cells were re-suspended with a density of 0.1 million cells per test with 50 μL FACS buffer (1×PBS+2% FBS).
Treatment with CD200-Fc proteins (50 μL) was performed starting from 10 μg/mL with 3-fold dilutions up to 10 concentrations with FACS buffer and incubated for 1-hour, 4-hours and 24-hours at 37° C. At the end of each time point, cells were collected and washed. 10 μg/mL of anti-human secondary antibody was added and incubated for 30 minutes at 4° C. Cells were washed post incubation and stained to check viability (1 μL dye per million cells per mL 1×PBS) for 20 minutes at 4° C. Cells were washed and fixed with Fixation buffer (100 μL per test) at 4° C. for 20 minutes. Post incubation, cells were washed and the pellet was re-suspended in FACS buffer (100 μL per test) for data acquisition on the flow cytometer.
For the 24-hour time point, treatment with CD200-Fc protein was performed with cell culture media. Wash step=addition of 200 μL FACS buffer and centrifugation at 1400 RPM.
The binding of ARQ-234 to U937-CD200R cells was compared to a wild type control CD200-Fc (DS-155) at 1, 4 and 24 hrs at human physiological temperature (37° C.) and binding was detected using flow cytometry with an anti-human IgG antibody.

[1] = PK study in serum of cynomolgus monkeys; assay type: in vivo; conditions: 5 mg/kg i.v. bolus; for AUC 0-t: t = 28 days
Experimental: 2 cynomolgus monkeys per group (one male, one female) were dosed at 5 mg/kg with an i.v. bolus of protein at time 0. Blood samples were taken for PK analysis at the following timepoints: pre-dose, 0.25 hr, 0.5 hr, 1 hr, 4 hr, 8 hr, 24 hr, day 3, day 5, day 7, day 10, day 12, day 14, day 21, day 28.
At least 0.8 mL blood samples were collected from a cephalic or saphenous vein at sampling time points from the two animals. For samples collected within the first hour of dosing, a ±1 minute deviation in sample collection time was acceptable. For the remaining time points, samples that were taken within 5% of the scheduled time are acceptable. All blood samples were collected into commercially available tubes containing coagulant. The tubes containing blood samples remained at room temperature for 30 minutes before centrifugation. The samples were centrifuged at 4° C. for 10 minutes at 1500×g within one hour of collection. About 400 μL serum per time point was collected post centrifugation. The samples were then quickly frozen over dry ice and kept at −60° C. or lower until transferred in dry ice for analysis. All samples were uniquely identified to indicate origin and collection time.
The concentrations of analyte in serum were determined using a bioanalytical ELISA method. 96-well ELISA plates were coated overnight at 4° C. with 1 μg/ml Goat anti-Human IgG in Carbonate-bicarbonate buffer. After wash and blocking, serial diluted plasma samples were added and then biotin labeled Goat anti-human IgG (0.0625 ug/mL) was used as detection antibody. HRP-Streptavidin and TMB substrate were used for colour development. The reaction was stopped after approximately 5-10 minutes through the addition of 2M HCl. The absorbance was read at 450 nm and 540 nm using a microplate spectrophotometer (SpectraMax® M5e). The OD value of the samples were substituted into the standard curve to obtain the plasma concentration. The detection limit of this ELISA method LLOQ for Fc+Fc is 1 ng/mL.
The serum concentration of ARQ-234 in monkeys was subjected to a non-compartmental pharmacokinetic analysis by using the Phoenix WinNonlin software (version 8.1, Pharsight, Mountain View, CA). The linear/log trapezoidal rule was applied in obtaining the PK parameters.

## ARQ-234: mutated human CD200-Fc fusion protein: CD200 K130Y, I131Y directly fused to IgG4 Fc S228P, M428L, N434S
U937-CD200R cells
  binding to U937-CD200R cells: superior binding of ARQ-234 to CD200R-expressing cells compared to DS-155; also recorded: more potent target engagement compared to DS-155
[1]; serum
  average half-life in the two animals tested: 15.44 days
[1]; animal #3001 (M)
  Cl_obs: 7.45 mL/day/kg
  MRTINF_obs: 17.3 days
  Vss_obs: 0.129 L/kg
  AUC 0-t: 12927 µg·h/mL
[1]; animal #3001 (M), serum
  Cmax: 127 µg/mL
  t1/2: 12.4 days
[1]; animal #3002 (F)
  Cl_obs: 6.56 mL/day/kg
  MRTINF_obs: 25.3 days
  Vss_obs: 0.166 L/kg
  AUC 0-t: 12259 µg·h/mL
[1]; animal #3002 (F), serum
  Cmax: 124 µg/mL
[1]; animal #3002 (F), serum, footnote: half-life not accurate (AUC_%Extrap_obs >20% or Rsq_adjusted <0.9)
  t1/2 (h): 443^ h
